Experimental data from patent US20130157959.

Biological target: in vitro translated 35S-labelled p53 (wild-type) (UniProt P04637)

Substance: GST-Hades RING-mutant peptide (C302S/C305S)
- in vitro ubiquitination of p53 with E1, E2 (UbcH5c) and His-ubiquitin, anti-p53 immunoblot: The p53 ubiquitination was only induce by Hades
